What was measured:
Assay in all cases: cell-based or functional assay
[1] = biological target: Akt kinase motif (AKM) peptide … of sensor AS1T
[2] = biological target: non-phosphorylable Akt kinase motif … (alanine substitution) of sensor AS1A
[3] = biological target: IRS-1 phosphorylation domain (PTB peptide), 13 amino acid peptide including Y941 of insulin receptor substrate 1

In the case of “yeast phosphothreonine FHA2 binding domain (from UniProt P22216 601-664)”, the FL activity of AS1T in 293T cells treated with PDGF for 30 minutes, relative to carrier control [1] is reported as 60 % decrease, the complemented FL activity of 293T/AS1T xenografts in nude mice 6 hours after 30 mg/kg perifosine, relative to carrier control treated mice [1] is reported as 60 % increase and the complemented FL activity of AS1T in BT474 cells treated with the PI-3K inhibitor LY294002 for 24 hours, relative to carrier control [1] is reported as 1.3 fold. For the same substance, the maximum induction of complemented FL activity of AS1T in response to LY294002 [1] was 4 fold, the complemented FL activity of 293T/AS1A xenografts in nude mice 6 hours after 30 mg/kg perifosine, relative to carrier control treated mice [2] was 20 % decrease and the complemented FL activity of untreated 293T/AS1A cells relative to untreated 293T/AS1T cells [2] was 10 fold.
For “SH2 domain of PI3 Kinase (substrate recognition domain) (from UniProt P27986 330-433)”, the bioluminescence signal induction, split firefly IRS-1 sensor with (EAAAR)2 linker in CHO-IR cells implanted in nude mice, after insulin (fold induction) [3] was 5 and the bioluminescence signal induction, split firefly IRS-1 sensor with (EAAAR)2 linker in CHO-IR cells implanted in nude mice, no insulin (fold induction) [3] was 1.3.

From patent publication US20070275428A1
